Experimental data reported in the RNAGym collection of RNA variant scans (doi:10.7554/elife.80360).

B1: CPEB3 Ribozyme (parent)
chain: GGGGGCCACAGCAGAAGCGUUCACGUCGCGGCCCCUGUCAGAUUCUGGUGAAUCUGCGAAUUCUGCUGU

Variants of: B1
Test: self-cleavage, relative activity (ratio to wild type); higher = more cleavage; co-transcriptional
With U44A U61A the self-cleavage was 0.843.
Work on A42U U67G yielded a self-cleavage of 0.951.
A42U U67A gave a self-cleavage of 0.95.
For U44C A60U, the self-cleavage was 0.441.
Variant U44C A60G has a self-cleavage of 0.669.
Work on U44G A60G yielded a self-cleavage of 0.819.
U44G A60C gave a self-cleavage of 0.368.
For U44G A60U, the self-cleavage was 0.382.
U44C C66G gave a self-cleavage of 0.464.
Work on U44C C66A yielded a self-cleavage of 0.502.
For U44C C66U, the self-cleavage was 0.928.
U43A U61C gave a self-cleavage of 0.334.
Work on U43A G56A yielded a self-cleavage of 0.641.
With U43A G56C the self-cleavage was 0.336.
U43A G56U showed a self-cleavage of 0.427.
Work on U44A C57G yielded a self-cleavage of 0.365.
For U44A C57U, the self-cleavage was 0.397.
For U44A C57A, the self-cleavage was 0.383.
Work on U44A C66U yielded a self-cleavage of 0.926.
U44A C66G showed a self-cleavage of 0.658.
For U43A U49A, the self-cleavage was 0.944.
Variant U43A U49C has a self-cleavage of 0.939.
U43A U49G showed a self-cleavage of 0.955.
For U44C G68A, the self-cleavage was 0.979.
Work on U44C G68C yielded a self-cleavage of 0.949.
For U43G G68A, the self-cleavage was 0.948.
In the case of U43G G68U, the self-cleavage is reported as 0.901.
U44C G58U gave a self-cleavage of 0.963.
With U44C G58A the self-cleavage was 0.981.
With U44C G58C the self-cleavage was 0.917.
Variant U43A G68C has a self-cleavage of 1.01.
In the case of U43A G68U, the self-cleavage is reported as 0.973.
Work on U43A C66U yielded a self-cleavage of 0.831.
U43A C66A showed a self-cleavage of 0.416.
U43C A51C showed a self-cleavage of 0.968.
For U43A G48U, the self-cleavage was 0.983.
U43A G48A showed a self-cleavage of 1.04.
U43C G68U gave a self-cleavage of 1.
Work on U43C G65C yielded a self-cleavage of 0.567.
For U43C G58A, the self-cleavage was 0.943.
In the case of U43C G58U, the self-cleavage is reported as 0.975.
U44C U61C gave a self-cleavage of 0.317.
With U43A U55A the self-cleavage was 0.257.
Work on A42U U49G yielded a self-cleavage of 0.957.
In the case of A42U U49C, the self-cleavage is reported as 0.915.
A42U G48C gave a self-cleavage of 0.947.
A42U G48A showed a self-cleavage of 0.968.
In the case of U43G G65U, the self-cleavage is reported as 0.352.
Work on U43G G65C yielded a self-cleavage of 0.432.
U44C U64G showed a self-cleavage of 0.719.
U44C U64A gave a self-cleavage of 0.662.
U44C G47U gave a self-cleavage of 1.01.
In the case of U44C G47A, the self-cleavage is reported as 0.979.
With U43A U46A the self-cleavage was 0.958.
U43A U46G gave a self-cleavage of 0.943.
Variant U43A U46C has a self-cleavage of 0.952.
With U43G G56C the self-cleavage was 0.329.
U43G G56A showed a self-cleavage of 0.481.
U44G C63U gave a self-cleavage of 0.918.
In the case of U44G C63A, the self-cleavage is reported as 0.835.
A42U U46C gave a self-cleavage of 0.781.
In the case of U44A U46A, the self-cleavage is reported as 0.99.
A42U G65C showed a self-cleavage of 0.433.
Work on A42U G65A yielded a self-cleavage of 0.661.
With A42U G65U the self-cleavage was 0.481.
Variant U43C C45U has a self-cleavage of 1.01.
U44G G58U gave a self-cleavage of 0.959.
Variant U44G G58A has a self-cleavage of 0.922.
Variant U44G G58C has a self-cleavage of 0.944.
Work on U43G G50A yielded a self-cleavage of 0.938.
With U43G G50U the self-cleavage was 0.952.
U44C U46A gave a self-cleavage of 0.958.
U44C U46C gave a self-cleavage of 0.972.
For U43G A59G, the self-cleavage was 0.836.
U43G A59U showed a self-cleavage of 0.566.
U43G A59C gave a self-cleavage of 0.513.
Work on U43A C54G yielded a self-cleavage of 0.418.
U43A C54A showed a self-cleavage of 0.599.
With U44G A52G the self-cleavage was 0.943.
U44G A52U gave a self-cleavage of 0.975.
With A42U U44A the self-cleavage was 0.898.
Variant U43C A59G has a self-cleavage of 1.02.
With U43C A59C the self-cleavage was 0.652.
U43C A59U gave a self-cleavage of 0.68.
